According to patent publication US5719041:

Legend:
[1] = molecular target: Human activated protein C (human) (UniProt P04070)
[2] = molecular target: Tissue factor·Factor VIIa complex (human Factor VIIa with recombinant human TF1-243) (human) (UniProt P08709)
[3] = molecular target: Human plasmin (human) (UniProt P00747)
[4] = molecular target: Human Factor Xa (human) (UniProt P00742)
[5] = molecular target: Human Factor XIIa (human) (UniProt P00748)
[6] = molecular target: Human plasma kallikrein (human) (UniProt P03952)
[7] = molecular target: Bovine trypsin (bovine) (UniProt P00760)
[8] = molecular target: Human Factor XIa (human) (UniProt P03951)
[9] = molecular target: Human leukocyte elastase (human) (UniProt P08246)
[10] = molecular target: Bovine chymotrypsin (bovine) (UniProt P00766)
[11] = molecular target: Human thrombin (human) (UniProt P00734)
[12] = molecular target: Single chain tissue plasminogen activator (human) (UniProt P00750)
[13] = molecular target: Human Factor Xa (human) (UniProt P00742); remark: listed apart in the source
[14] = molecular target: Human Factor XIIa (human) (UniProt P00748); remark: listed apart in the source
[15] = molecular target: Human plasma kallikrein (human) (UniProt P03952); remark: listed apart in the source
[16] = molecular target: T1, MeOSuc-Ala-Ala-Pro-Val-MCA
T1 sequence (peptide, N-terminal MeOSuc; C-terminal MCA): AAPV

Sequence of Human leukocyte elastase (P08246 30-247 limits assumed): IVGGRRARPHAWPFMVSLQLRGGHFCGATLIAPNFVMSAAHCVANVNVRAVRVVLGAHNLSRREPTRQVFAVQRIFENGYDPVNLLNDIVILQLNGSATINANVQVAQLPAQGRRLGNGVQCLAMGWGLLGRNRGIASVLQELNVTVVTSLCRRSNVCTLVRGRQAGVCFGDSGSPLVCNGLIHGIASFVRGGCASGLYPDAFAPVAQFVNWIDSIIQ

| Percent Activity of protease with 100 nM inhibitor [1] [%] | Percent Activity of protease with 100 nM inhibitor [2] [%] | Percent Activity of protease with 100 nM inhibitor [3] [%] | Percent Activity of protease with 100 nM inhibitor [4] [%] | Percent Activity of protease with 100 nM inhibitor [5] [%] | Percent Activity of protease with 100 nM inhibitor [6] [%] | Percent Activity of protease with 100 nM inhibitor [7] [%] | Percent Activity of protease with 100 nM inhibitor [8] [%] | Percent Activity of protease with 100 nM inhibitor [9] [%] | Percent Activity of protease with 100 nM inhibitor [10] [%] | Percent Activity of protease with 100 nM inhibitor [11] [%] | Percent Activity of protease with 100 nM inhibitor [12] [%] | concentration giving 10-fold prolongation of clotting time, PT assay in normal human plasma [13] [µM] | concentration giving 10-fold prolongation of clotting time, APTT assay in normal human plasma [14] [µM] | concentration giving 10-fold prolongation of clotting time, APTT assay in normal human plasma [15] [µM] | Km of the substrate with HLE [16] [µM] | Substance |
| --- | --- | --- | --- | --- | --- | --- | --- | --- | --- | --- | --- | --- | --- | --- | --- | --- |
| 65 | 92 | 9 | 2 | 0 | 2 | 0 | 12 | 85 | 1 | 16 | 100 |  |  |  |  | Ecotin M84K mutant (from UniProt P23827) |
| 50 | 87 | 10 | 1 | 1 | 1 | 0 | 5 | 88 | 0 | 4 | 100 |  |  |  |  | Ecotin M84R mutant (from UniProt P23827) |
| 99 | 99 | 100 | 0 | 0 | 0 | 0 | 79 | 0 | 0 | 98 | 100 | 2 | 0.3 | 0.3 |  | Ecotin (recombinant wild type, E. coli periplasmic protein, 142 amino acid residues) (from UniProt P23827) |
|  |  |  |  |  |  |  |  |  |  |  |  |  |  |  | 150 | Human leukocyte elastase (from UniProt P08246) (enzyme) |
